Assay results published in the supplement of paper PMC9170038.

Test system: MS2 coat protein
Assay: apparent KD of MS2 coat protein; designed switch direction (-1 OFF switch, 1 ON switch): -1; higher = weaker reporter binding
Method in brief: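 Normalised cluster fluorescence was curve-fitted, and each design's median over clusters is its apparent KD. Before this, SNAP-549-labelled MS2 coat protein was titrated from 0.7 or 1.5 nM, doubling to 3 µM, over RNA switches transcribed on Illumina chips by stalled E. coli RNA polymerase. Titrations had no input, 200 uM small-molecule ligand, or an oligonucleotide input, and steps lasted 0.8–1.5 h (lowest) to 10–20 min (highest).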

[1] = Eterna round: R95, input ligand: microRNA oligo, concentration not stated
[2] = Eterna round: R95, input ligand: FMN 200 uM
[3] = Eterna round: R95, input ligand: none
[4] = input ligand: microRNA oligo, concentration not stated

Sequence	apparent KD of MS2 coat protein [1] [nM]	apparent KD of MS2 coat protein [2] [nM]	apparent KD of MS2 coat protein [3] [nM]	apparent KD of MS2 coat protein (input ligand: FMN 200 uM) [nM]	apparent KD of MS2 coat protein [4] [nM]	apparent KD of MS2 coat protein (input ligand: none) [nM]
UUUUAACAUGAGGAUCACCCAUGUGAGGAUAUCGAAAUUUAUAUUAAUAUUUAUAAAACGAGAAGGCACAUUUU [JMF 51] (puzzle: Exclusion 1)	78.6					
UUCCUGUCAGGAUAUGACUAGAUGCACGAAAGUGUUUUUAGUUAGAAGGGACAUGAGGAUCACCCAUGUAGUCC [Bring Us a Shrubbery-19] (puzzle: Exclusion 4)	21.9					
GAUUAUGCGAGCUUUAGGGACAUGAGGAUCACCCAUGUUCGUCUUAUUGGUCUGAAUACACUAACAUACCUAAAUCU [JMF 11] (puzzle: Sensor v3, turn-off variant 1)	33.7	17.4	21.7			
AACCUGAGGCAAAGCUUUAGGUGUACAUGAGGAUCACCCAUGUAGGAUAUGGUAAGCAAAGCUUACCAGAAGGACAUAAUGAUG [Mat - Exclusion NG 3 - Mod of JL - D48] (Eterna round: R96, puzzle: Exclusion NG 3)				134	70.1	90.2
GCCUUAUCCGUCAGGAUAUACAGCCGCUCCCUGUUGUAGAAGGGACAUGAGGAUCACCCAUGUACGUACCACCC [alecazam9] (Eterna round: R97, puzzle: Brourd's mod of Exclusion 4)				29.1		31.1
AAUGAUUGACGAGGAUAUUGUGGUAAAACACGACGAGAAGGCGUAUGUCACAUGAGGAUCACCCAUGUGAGCUUUGUGGAUAUA [Ex NG1 #71] (Eterna round: R96, puzzle: Exclusion NG 1)				31.4	23.4	35.5
CCCGUACAUGAGGAUCACCCAUGUCAGGAUAUCUAAUCAUGCUGUAAGGCACAUUGAGGGAGAAGGGACAUAUU [EX1 B.29] (Eterna round: R97, puzzle: Exclusion 1)				32.4		20.8
GCGGAGUCAGGAUAUUGAAUUUAACGUACCAAUAAGGUACGCGAGAAGGGACAUGAGGAUCACCCAUGUACCGC [Mat - Exclusion 4 - Eli Mod - D35] (Eterna round: R97, puzzle: Exclusion 4)				16.5		17.3
UUAAAUCAUGUAGGAUAUGCUUUGCGAAGCGAGGCAGAAGGACAUGAGGAUCACCCAUGUGCUAGCGUCCGAGUACGGAUGCAA [Mat - Exclusion NG 1 - Mod of JL - D62] (Eterna round: R96, puzzle: Exclusion NG 1)				214	62.6	83.3
CGUUGGAAAGGAUAUACAUGAGGAUCACCCAUGUGAAAUUAUAGUGAGGAAAUGAAAAGUAGAAGGUUCUGACA [Mod of Mat 6 - Jieux - Exclusion 3] (Eterna round: R97, puzzle: Exclusion 3)				61.2		25
CAUUAGCGAGGAUAUACAUGAGGAUCACCCAUGUGAUCCUAAGGCUGAUGAAGCCUAUGUAGAAGGCGCAAAUU [jl-ex3.4.54 ViennaUCT mod] (Eterna round: R97, puzzle: Exclusion 3)				107		42.2
UUUUAGAGAGGAUAUAUAAUGUGAAACAUGAGGAUCACCCAUGUAAUAUUAUGGAUGUAAAUAGAAGGCUCAAUUA [Mat - Exclusion 5 - JL mod - D13] (puzzle: Exclusion 5)	30.4	28.5	26.3			
CUUUUGUGAGGAUAUUAAUAGUAAGUAAAUAAAAUUAUUACUAAGAAGGCACAUGAGGAUCACCCAUGUUCCUC [EX4 #82] (Eterna round: R97, puzzle: Exclusion 4)				102		63.4
GGAUCAUAUGUCAGGAUAUGCUGGACCUUGGUUCAGCAGAAGGGACAUGAGGAUCACCCAUGUCAUGGAGAUCC [Mat - Exclusion 4 - Eli Mod - D53] (Eterna round: R97, puzzle: Brourd's mod of Exclusion 4)				270		415
UCAUACGUUGAGGAUAUCUCAGUUAGAAUAUUUAGAGAAGGCGAUACAUGAGGAUCACCCAUGUUUAUGGGCAU [Ex-6 Malc#6] (puzzle: Exclusion 6)	286	346	461			
CUACUGAAGCUUUGCUUUAGUCGUACAUGAGGAUCACCCAUGUAGGAUAUACAUGAGGAUCACCCAUAGAAGGAUAGAGUGAUC [salish99_ExNG3_r04_602] (Eterna round: R96, puzzle: Exclusion NG 3)				36.1	31.2	38.6
AUCCGUUCUUAGGAUAUUUGAUAAGUCAUGUACGAAGAAGGAAGAACAUGAGGAUCACCCAUGUGGGACUUCGG [Eternabot (L2) Solution 12] (Eterna round: R97, puzzle: Exclusion 6)				29		25.9

Sequence	apparent KD of MS2 coat protein [1] [nM]	apparent KD of MS2 coat protein [2] [nM]	apparent KD of MS2 coat protein [3] [nM]	apparent KD of MS2 coat protein (input ligand: FMN 200 uM) [nM]	apparent KD of MS2 coat protein [4] [nM]	apparent KD of MS2 coat protein (input ligand: none) [nM]
CAGUACUGAGGAUAUACAUGAGGAUCACCCAUGUGUUCCAGCUAGGAAACUAGCAUAUGUAGAAGGCAGUACUG [Eli x3 4.06] (Eterna round: R97, puzzle: Exclusion 3)				578		298
AAAAAGGCAGGAUAUACAUGAGGAUCACCCAUGUGAAAAAACAAAAAAAAAAAAAAAGGUAGAAGGGCCGAAAA [Science Triplets #3] (puzzle: Exclusion 3)	29	22.1	27.6			
ACAUGAGGAUCACCCAUGUCGAGUACAUGAGGAUCACCCAUGUAGGAUAUGGUUCGCUUUGCGUGCUAGAAGGAUAUAUGUUGA [salish99_ExNG3_r04_511] (Eterna round: R96, puzzle: Exclusion NG 3)				780	297	457
CUCGUGCGGCUUUGCUGUGCGGGUACAUGAGGAUCACCCAUGUAGGAUAUGGUGCGCUUUGCGUGCCAGAAGGGCGUGCGUUGG [salish99_ExNG3_r04_011] (Eterna round: R96, puzzle: Exclusion NG 3)				36.6	27.1	27.3
GCCCAGCUAGGAUAUCGCACUGCAGACAUGAGGAUCACCCAUGUGAUGAGGUCUGAAUUCCGAGAAGGAGCAUGGA [Isedzaqu] (puzzle: Exclusion 5)	22.1	66.6	26.7			
CAUGAUUGGGAAGGAUAUUGACCUAGUUAGUGCCGAGAAGGUCCCUUUCACAUGAGGAUCACCCAUGUGAGUCUGGUGUUCGAG [Ex NG1 #97] (Eterna round: R96, puzzle: Exclusion NG 1)				43.1	23.7	30.5
CUUUUGUGAGGAUAUCAGUAGUAAAUAAAUAAAUUUACUACUGAGAAGGCACAUGAGGAUCACCCAUGUUCCUC [salish99_ex3_r3_084] (puzzle: Exclusion 4)	45.4					
CAGUACUGAGGAUAUACAUGAGGAUCACCCAUGUGUUCCAGCUAGGAAACUAGCAAAAGUAGAAGGCUGUACUG [salish99_ex3_r3_088] (puzzle: Exclusion 3)	17.9					
CCGUGCACGCUGCGCUCCUACAUGAGGAUCACCCAUGUGGUCCGGUGGCGUGGGUCGCCGGACUUGGCUCGUCUUGU [salish99_S_TOV1_R5_019] (Eterna round: R97, puzzle: Sensor, turn-off variant 1)				83.1		
ACAUGUCAUCGAGGAUAUUGGACACAUGAGGAUCACCCAUGUACUCGGAGGCUCUACUAUGAGUUCGAGAAGGCGAUGUACAUG [Ex NG2 #75] (Eterna round: R96, puzzle: Exclusion NG 2)				355	45.4	49.9
AGGAUGAGAGGAUAUACAAACGGUCCCACAAUCUCACGGGCACAUGAGGAUCACCCAUGUAGAAGGCUCAUUGG [EX2 B.28] (Eterna round: R97, puzzle: Exclusion 2)				325		49.6
GUCACUAGAGGAUAUACAAUGGUAUAUGAUCCUAGAGACAAACAUGAGGAUCACCCAUGUAGAAGGCUAGUAUU [Exclusion 2 - 4] (puzzle: Exclusion 2)	93.4					
CAGCUGAAUGUGAGGAUAUCUAGAGCCUCGGCUCUAGAGAAGGCACAUGAGGAUCACCCAUGUCUCAACAGCUG [BmEx4/2-A2] (Eterna round: R97, puzzle: Brourd's mod of Exclusion 4)				249		35.9
UGAGUGCUGCGAGGAUAUACAUGAGGAUCACCCAUGUGGAUGUCUGAGGCUUUGCCUCAGACGAUGUAGAAGGCGCAGUACUCU [JL ENG2 1.20] (Eterna round: R96, puzzle: Exclusion NG 2)				100	15.2	22.1
UAUUAGCAAGUAAGAUCCCACAUGAGGAUCACCCAUGUGCUCGUCAUAUCAGGUACGGAGCGGAAACUCCCGAUAUG [Sensor-V1 #89] (Eterna round: R97, puzzle: Sensor, turn-off variant 1)				106		95.9
AUCGGCUCAGUCAGGAUAUGAUUGAAUCGUUGCAAUUAGAAGGGACAUGAGGAUCACCCAUGUGCGGUGCGGUC [Eternabot (L1) Solution 27] (Eterna round: R97, puzzle: Brourd's mod of Exclusion 4)				178		169
UCUAGUUCAGGAUAUGUAGAUUUUAACAUGAGGAUCACCCAUGUAGAUCCUGAAUUAGCUACAGAAGGGAACAUUU [Mod of Brourd 2 - Jieux - Exclusion 5] (Eterna round: R97, puzzle: Exclusion 5)				18.1		13.3
